Measurements from patent US20210206880A1 (published 2021).
Residue numbers refer to the chain shown, from its start. Names and notes keep the numbering of the source.

B1: Nb60 HopQ-specific Nanobody (VHH)
VHH: QVQLQESGGGLVQPGGSLRLSCAASGFTFSRYAMSWVRQAPGKGPEWVSAINSPGGSTSYADSVKGRFTISRDNAKNTLYLQMNSLKPDDTAVYYCAKYERATEWGHTIVAVTPLLDGVHDYWGQGTQVTVSS
notes: also called cHopQ-specific Nanobody
B2: MbNb60^c7HopQ mut2 (N277K, T270R) (designed binder)
chain: QVQLVESGGGLVQTKTTTSVIDTTNDAQNLLTQAQTIVNTLKDYCPILIAKSSSSNGGTNNANTPSWQTAGGGKNSCATFGAEFSAASDMINNAQKIVQETQQLSANQPKNITQPHNLNLNSPSSLTALAQKMLKNAQSQAEILKLANQVESDFNKLSSGHLKDYIGKCDASAISSANMTMQNQKNNWGNGCAGVEETQSLLKTSAADFNNQTPQINQAQNLANTLIQELGNNTYEQLSRLLTNDNGTNSKTSAQAINQAVNNLNERAKRLAGGTTKSPAYQATLLALRSVLGLWNSMGYAVICGGYTKSPGENNQKDFHYTDENGNGTTINCGGSTNSNGTHSYNGTNTLKADKNVSLSIEQYEKIHEAYQILSKALKQAGLAPLNSKGEKLEAHVTTSKYGSLRLSCAASGFTFSRYAMSWVRQAPGKGPEWVSAINSPGGSTSYADSVKGRFTISRDNAKNTLYLQMNSLKPDDTAVYYCAKYERATEWGHTIVAVTPLLDGVHDYWGQGTQVTVSSHHHHHHEPEA
notes: also called MbNb60^cHopQmut2; MbNb60^c7HopQ N277K T270R
B3: MbNb60^c7HopQ mut3 (N277K, T270R, E197R) (designed binder)
chain: B2 chain with E197R
notes: also called MbNb60^cHopQmut3; MbNb60^c7HopQ N277K T270R E197R
B4: MbNb60^cYgjkE2 (designed binder)
chain: QVQLVESGGGLVYKEETQSGLNNYARVVEKGQYDSLEIPAQVAASWESGRDDAAVFGFIDKEQLDKYVANGGKRSDWTVKFAENRSQDGTLLGYSLLQESVDQASYMYSDNHYLAEMATILGKPEEAKRYRQLAQQLADYINTCMFDPTTQFYYDVRIEDKPLANGCAGKPIVERGKGPEGWSPLFNGAATQANADAVVKVMLDPKEFNTFVPLGTAALTNPAFGADIYWRGRVWVDQFWFGLKGMERYGYRDDALKLADTFFRHAKGLTADGPIQENYNPLTGAQQGAPNFSWSAAHLYMLYNDFFRKQASGGGSGGGGSGGGGSGNADNYKNVINRTGAPQYMKDYDYDDHQRFNPFFDLGAWHGHLLPDGPNTMGGFPGVALLTEEYINFMASNFDRLTVWQDGKKVDFTLEAYSIPGALVQKLTAKDVQVEMTLRFATPRTSLLETKITSNKPLDLVWDGELLEKLEAKEGKPLSDKTIAGEYPDYQRKISATRDGLKVTFGKVRATWDLLTSGESEYQVHKSLPVQTEINGNRFTSKAHINGSTTLYTTYSHLLTAQEVSKEQMQIRDILARPAFYLTASQQRWEEYLKKGLTNPDATPEQTRVAVKAIETLNGNWRSPGGAVKFNTVTPSVTGRWFSGNQTWPWDTWKQAFAMAHFNPDIAKENIRAVFSWQIQPGDSVRPQDVGFVPDLIAWNLSPERGGDGGNWNERNTKPSLAAWSVMEVYNVTQDKTWVAEMYPKLVAYHDWWLRNRDHNGNGVPEYGATRDKAHNTESGEMLFTVKKDSLRLSCAASGFTFSRYAMSWVRQAPGKGPEWVSAINSPGGSTSYADSVKGRFTISRDNAKNTLYLQMNSLKPDDTAVYYCAKYERATEWGHTIVAVTPLLDGVHDYWGQGTQVTVSSHHHHHHEPEA
notes: also called Mb^Nb60cYgjkQE2

Experiments:
[1] = molecular target: T1, MbNb207^cHopQ; assay: co-crystal structure
T1 construct: also called cHopQNbGFP207; 58 kDa Megabody

[2] = molecular target: T1, MbNb207^cHopQ; assay: BLI (Octet), biotinylated MbNb207^cHopQ on streptavidin sensors

| Binder | binding result [1] | binding result [2] |
| --- | --- | --- |
| B1 | binds |  |
| B2 |  | binds |
| B3 |  | binds |
| B4 |  | binds |
